Source: paper PMC12732646, “Peroxisome Proliferator-Activated Receptor α/δ/γ Activation Profile by Endogenous Long-Chain Fatty Acids” (International Journal of Molecular Sciences, 2025)
Values belong to the binder of their own block, whether it stands above or below them. Ends that are not written are not given here.

What was measured:
Details in all cases: both partners purified
[1] = target: T1, Human PPARα-LBD (amino acids 200–468) (human, UniProt Q07869 200-468); test: FRET or BRET; same cell-free TR-FRET coactivator recruitment; with approved drug (pemafibrate for PPARα, seladelpar for PPARδ, pioglitazone for PPARγ), concentration series; response as percent of the maximal response with 1 µM GW full agonist
T1 construct: source: delipidized with ethanol
T1 sequence (looked up): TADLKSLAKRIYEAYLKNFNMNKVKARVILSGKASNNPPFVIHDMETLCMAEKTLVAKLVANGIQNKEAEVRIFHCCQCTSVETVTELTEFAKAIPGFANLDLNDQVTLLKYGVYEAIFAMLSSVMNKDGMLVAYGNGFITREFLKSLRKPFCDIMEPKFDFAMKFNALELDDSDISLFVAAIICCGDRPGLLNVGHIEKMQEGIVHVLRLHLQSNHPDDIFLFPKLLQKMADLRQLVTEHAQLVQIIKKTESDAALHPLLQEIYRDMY

[2] = target: T2, Human PPARδ-LBD (amino acids 170–441) (human, UniProt Q03181 170-441); test: as above
T2 sequence (looked up): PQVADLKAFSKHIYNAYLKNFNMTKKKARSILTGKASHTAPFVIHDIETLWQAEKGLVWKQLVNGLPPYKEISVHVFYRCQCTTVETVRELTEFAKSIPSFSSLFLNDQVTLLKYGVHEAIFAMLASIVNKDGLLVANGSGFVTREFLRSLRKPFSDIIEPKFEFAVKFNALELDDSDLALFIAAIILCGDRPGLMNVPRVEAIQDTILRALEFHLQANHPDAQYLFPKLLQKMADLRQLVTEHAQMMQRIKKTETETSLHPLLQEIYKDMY

[3] = target: T3, Human PPARγ-LBD (isoform 1; amino acids 203–477) (human, UniProt P37231-2 203-477); test: as above
T3 construct: numbers count on: isoform 1
T3 sequence (looked up): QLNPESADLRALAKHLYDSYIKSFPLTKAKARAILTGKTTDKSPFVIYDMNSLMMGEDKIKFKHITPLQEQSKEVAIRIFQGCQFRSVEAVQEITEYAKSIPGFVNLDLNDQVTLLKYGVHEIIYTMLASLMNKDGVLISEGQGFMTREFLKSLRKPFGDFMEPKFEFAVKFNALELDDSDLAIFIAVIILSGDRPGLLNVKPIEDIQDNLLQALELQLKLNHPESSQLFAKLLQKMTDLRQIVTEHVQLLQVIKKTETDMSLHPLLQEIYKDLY

[4] = target: T3, Human PPARγ-LBD (isoform 1; amino acids …); test: FRET or BRET; cell-free TR-FRET coactivator recruitment; 6×His-LBD (9.5 µL of 400 nM) with Eu-W1024 anti-6×His antibody, biotin-labeled peptide (5 µL of 1 µM) with ULight-streptavidin; Buffer A (20 mM HEPES-NaOH pH 7.4, 150 mM NaCl, 1 mM EDTA, 0.005% Tween 20, 0.2% FA-free BSA); room temperature, 2 h; with synthetic full agonist (GW7647 for PPARα, GW501516 for PPARδ, GW1929 for PPARγ), concentration series; 665/620 …

binding result [1]: binds
binding result [2]: binds
binding result [3]: binds
Binder: SGNLVPDAASKHKQLSELLRGGSGS (also: biotin-labeled, position not given here, source: synthetic peptide (GenScript)) [CBP coactivator peptide, AAs 56–80]

binding result [1]: binds
binding result [2]: binds
Binder: CPSSHSSLTERHKILHRLLQEGSPS (also: biotin-labeled, position not given here, source: synthetic peptide (GenScript)) [SRC1 coactivator peptide, AAs 676–700]

binding result [2]: binds
Binder: EAEEPSLLKKLLLAPANTQ (also: biotin-labeled, position not given here, source: synthetic peptide (GenScript)) [PGC1α coactivator peptide, AAs 137–155]

binding result [1]: binds
binding result [2]: binds
binding result [4]: binds
B1: TRAP220 coactivator peptide, AAs 631–655 (peptide)
peptide: PVSSMAGNTKNHPMLMNLLKDNPAQ
modifications: also: biotin-labeled, position not given here
notes: Thyroid hormone receptor-associated protein 220, amino acids 631-655, holds an LXXLL motif (LMNLL); also called thyroid hormone receptor-associated protein 220 peptide; source: synthetic peptide (GenScript)
